Test results as given in the PETadex activity labels (doi:10.1128/aem.01698-25).

B1: unnamed (protein)
chain: MKFRALLFSASLIAILFNGLTINTVNAQTNDFLYGDQLPDAPELSSRGEYKVGVKTVNLVNPNQVDILNSKEGNDPTYDRPITIEVWYPANVGDDAKTVVYDEVMGTRGDSLRPLTPFTFKGRAYRDATPKTGNKFPLVVVSHGYVGSRYLMTYLTENLASKGYIVAAIDHTDSTFKDANAFQSTLLNRPKDIRFVINEMEKMGAKGSKNNLEGVVDANNTAIIGYSMGGYGVLNVGGAGYSAGLAQFFTGMTGGSTAISVHTAGNAAYEKMIDARIKAIVAFAPWGMERGVWDAEGLKGLKTPTFFIAGSQDDISGYEKGIKAIYEGAVNADRYLLTYMNARHNVAPNPPPAEALAPGLHIDEYYRYAEPSWDQRKMNNINQHFVTAFIGKHLKNQDSTKFLEVQEDSNEKDWTGFKPRSSTGMELLHAQPAN
B2: unnamed (protein)
chain: MPILNRFAHFQLILCFLISNLVLNAQTGSFVYGDALPDAPELSARGSYAVGVRTLDFVNKGQADVLNSKNGIDPIYDRPLKVEVWYPAQLAEGAKETVVYDEVMGTAHDSLRPLTPITFKGRASRDAAPLTTDGSFPLLVVAHGYVGSRYLMTYLTENLASKGYVVVAIDHTDSTFRDASPFASTLVNRAKDISFVLNQTVNLGKAADNNFLAGLVDSENIGIIGYSMGGYGVLNVAGAGYSDGLVGFFSGMTGGSKAIVDLAMSNPDFPKVDPRIKAVVAFAPWGMERGIWDAEGLKGLKVPTFFIAGSQDDISGYEKGIKAIYTGAVNADRYLLTYENARHNVAPNPPPAESFEPGLHIDEYYRYAEPSWDERKINNVNQHFITAFLGIHLKQKDYSKFLELQENSNEKDWTGFKARSSTGMELLHDKPAP

substrate: pNP-C8; assay: Proxy for plastic degradation [Absorbance @ 405nm]; conditions: 4 °C

In order of rising “Proxy for plastic degradation” value:
1. B1  90%
2. B2  95%

same assay, conditions: 10 °C

In order of falling “Proxy for plastic degradation” value:
1. B1  90%
2. B2  70%

same assay, conditions: 20 °C

In order of falling “Proxy for plastic degradation” value:
1. B1  90%
2. B2  90%

same assay, conditions: 30 °C

In order of falling “Proxy for plastic degradation” value:
1. B1  95%
2. B2  90%

same assay, conditions: 40 °C

In order of rising “Proxy for plastic degradation” value:
1. B1  100%
2. B2  100%

same assay, conditions: 50 °C

In order of falling “Proxy for plastic degradation” value:
1. B1  95%
2. B2  90%

same assay, conditions: 60 °C

In order of falling “Proxy for plastic degradation” value:
1. B1  35%
2. B2  10%

same assay, conditions: 70 °C

In order of falling “Proxy for plastic degradation” value:
1. B2  15%
2. B1  5%

same assay, conditions: 80 °C

In order of falling “Proxy for plastic degradation” value:
1. B1  30%
2. B2  25%

same assay, conditions: 90 °C

In order of falling “Proxy for plastic degradation” value:
1. B2  20%
2. B1  0%

same assay, conditions: pH 3

In order of rising “Proxy for plastic degradation” value:
1. B1  0%
2. B2  0%

same assay, conditions: pH 4

In order of rising “Proxy for plastic degradation” value:
1. B2  0%
2. B1  5%

same assay, conditions: pH 5

In order of falling “Proxy for plastic degradation” value:
1. B1  55%
2. B2  0%

same assay, conditions: pH 9

In order of falling “Proxy for plastic degradation” value:
1. B1  60%
2. B2  0%

same assay, conditions: pH 9.2

In order of rising “Proxy for plastic degradation” value:
1. B2  0%
2. B1  80%

same assay, conditions: pH 10.2

In order of rising “Proxy for plastic degradation” value:
1. B2  0%
2. B1  55%
